The target of assay [1] is unacylated ghrelin (UAG) (mouse) (UniProt Q9EQX0). Nature of the assay: cell-based or functional assay.
Assay [2] has as its target acylated ghrelin (AG) (mouse) (UniProt Q9EQX0). Kind of assay: cell-based or functional assay.

Turning to “GHSR/Fc (Nt-EC1-EC2 of mouse GHS-R1a fused with a mouse IgG constant region (Fc)) (Fc fusion)”, the levels of total ghrelin (primarily UAG) in circulation of mice expressing GHSR/Fc (plasma radioimmunoassay) in assay [1] is 141 pg/mL. In assay [2], this substance yielded a levels of AG in circulation of mice expressing GHSR/Fc (plasma enzyme-linked immunoassay) of 1.41 pg/mL.

Source of the values: patent US20160130322A1.
